Laboratory results: paper PMC9126943, “ADAMTS4-specific MR probe to assess aortic aneurysms in vivo using synthetic peptide libraries” (Nature Communications, 2022)
Values joined by “and” are separate entries in the source; they are usually repeats but may differ in a detail not shown here. Identical values can stand only once. Where a SMILES comes first, the peptide text is derived from it. Bridges are numbered along the chain shown (N, C = ends). The star is where a group is joined. DOTA = O=C(O)CN1CCN(CC(=O)O)CCN(CC(=O)*)CCN(CC(=O)O)CC1

Key:
[1] = target: T1, ADAMTS4 in the aneurysmal aortic wall of ApoE−/− mice (Mus musculus, UniProt Q8BNJ2); experiment: In vivo MRI, cross-sectional study (2 and 4 weeks AngII, sham); conditions: for CNR after administration, individual animals: one line per mouse
T1 construct: from tissue
T1 sequence (Q8BNJ2 209-833): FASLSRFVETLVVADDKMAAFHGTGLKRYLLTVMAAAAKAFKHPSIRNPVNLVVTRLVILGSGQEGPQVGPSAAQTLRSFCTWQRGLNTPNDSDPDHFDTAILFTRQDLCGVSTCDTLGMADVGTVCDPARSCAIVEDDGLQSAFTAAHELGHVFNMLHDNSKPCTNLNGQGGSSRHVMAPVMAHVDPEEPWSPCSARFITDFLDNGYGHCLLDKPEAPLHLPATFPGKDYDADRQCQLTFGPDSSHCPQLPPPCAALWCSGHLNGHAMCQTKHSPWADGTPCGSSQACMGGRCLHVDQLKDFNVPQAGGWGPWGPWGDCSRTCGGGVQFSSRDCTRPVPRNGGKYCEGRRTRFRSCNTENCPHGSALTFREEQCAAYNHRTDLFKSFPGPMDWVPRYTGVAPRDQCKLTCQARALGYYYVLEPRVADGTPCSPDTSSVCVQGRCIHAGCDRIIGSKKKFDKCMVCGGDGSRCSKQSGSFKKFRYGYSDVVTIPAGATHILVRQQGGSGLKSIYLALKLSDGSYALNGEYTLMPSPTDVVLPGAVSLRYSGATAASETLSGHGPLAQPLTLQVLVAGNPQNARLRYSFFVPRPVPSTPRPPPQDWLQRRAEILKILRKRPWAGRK
Experimental: All procedures and animal maintenance were performed according to the guidelines and regulations of the Federation of Laboratory Animal Science Associations (FELASA) and the local Guidelines and Provisions for Implementation of the Animal Welfare Act. The animal studies were approved by the local authorities (Lageso Berlin.) Mice were obtained from the Research Institute of Experimental Medicine at the Charité Berlin and maintained under barrier conditions, including a dark/light cycle of 12 h, an ambient temperature of 20 °C, and a humidity of 45%. A standard laboratory diet and water were provided ad libitum. For aneurysm induction, male 8-week-old apolipoprotein-E knockout (ApoE^−/−) (B6.129P2-ApoE^tm1Unc/J) mice underwent implantation of osmotic minipumps (Alzet model 2004, Durect Corp). Osmotic minipumps were implanted subcutaneously in the dorsal neck region and continuously delivered angiotensin II (AngII, Merck KGaA, Darmstadt, Germany) (1000 ng/kg/min) for up to 28 days (n = 32). Sham-operated mice (n = 10) served as the control group, receiving saline for 28 days instead of AngII via the osmotic minipumps.
For the cross-sectional study, MR imaging was performed after two and 4 weeks of AngII-infusion (n = 10 per group). […]
MR imaging was performed using a clinical 3 T Siemens system (Biograph, Siemens Healthcare Solutions, Erlangen, Germany). […] Following anesthesia injection, the animals were positioned in a prone position, and body temperature (37 °C) was monitored using an MR-compatible heating system (Model 1025, SA Instruments Inc, Stony Brook, NY) to avoid rapid cooling. […]
Analysis of resulting MR images was performed using OsiriX (version 7.1, OsiriX Foundation, Bernex, Switzerland). […] In order to assess the signal intensities, regions of interest (ROIs) were measured as areas of signal enhancement, which were co-localized with areas of aneurysmal-aortic tissue. For these areas, the CNR was calculated using the following formula: CNR = (Combined vessel-wall and aneurysmal-aortic-tissue-signal − blood-signal)/standard-deviation-signal (noise). […]

[2] = Biodistribution and blood clearance by ICP-MS of Gd
[3] = male ApoE−/− mice, i.v., n = 3 per time point

N=C(N)NCCC[C@@H]1NC(=O)[C@H](CCCNC(=N)N)NC(=O)[C@H](CO)NC(=O)[C@@H](N)CSSC[C@@H](C(=O)N[C@@H](CO)C(=O)NCC(=O)NCC(=O)N[C@@H](CO)C(=O)NCC(=O)NCC(=O)N[C@@H](CCCCNC(=O)CN2CCN(CC(=O)O)CCN(CC(=O)O)CCN(CC(=O)O)CC2)C(=O)NCC(N)=O)NC(=O)CNC1=O (Gd complex, metal not drawn) [ADAMTS4-specific probe] (H-CSRRGCSGGSGGK(DOTA)G-NH2; disulfide 1-6)
CNR after administration, individual animals ([1]; 4 weeks AngII (4w)): 13.92 and 11.1 and 12.72 and 12.01 and 12.59 and 22.52 and 20.4 and 10.53 and 14.06 and 16.11
CNR of the mice analysed by ICP-MS (Figure 7a) ([1]; individual mice, n = 7): 9.44 and 11.51 and 11.44 and 12.92 and 6.96 and 7.76 and 7.00
CNR after administration, individual animals ([1]; sham (s)): 6.04 and 7.8 and 7.62 and 6.96 and 7.76 and 7 and 7.77 and 7.23 and 7.52
time of highest aortic uptake after intravenous injection ([2]; ApoE−/− mice): 15 min
blood clearance ([2]; ApoE−/− mice, i.v., over 120 min): rapid blood clearance
Gd levels in kidneys and urine [2, 3]: Higher levels of Gd
gadolinium uptake in liver, lung, spleen, heart and muscle [2, 3]: low gadolinium uptake
